According to the supplement of paper PMC7125110:
± gives the standard error. For part of these data: This sample holds only a part of the variants without activity.

B1: glmS ribozyme (parent)
chain: AUAAAAGCGCCAGAACUACAGAAAUGUAGUUGACGAGGAGGAGGUUUAUCGAAUUUUCGGCGGAUGCCUCCAAA

Legend:
Settings in all cases: with glucosamine-6-phosphate
[1] = variants of: B1; test: kcat; higher = faster cleavage; RNA array
Outline: (§1)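 Tiles bearing barcoded ribozyme variants, transcribed in situ by E. coli RNA polymerase on sequenced MiSeq chips, were imaged over ~14 h at 37 °C using a hybridised Cy3 probe. Glucosamine-6-phosphate was supplied at 40 μM to 10 mM in HEPES/KCl/Mg(OAc)2 buffer. kobs came from one- or two-exponential decay fits to normalised per-tile medians, and weighted Michaelis–Menten fits then provided kcat and KM.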

[2] = variants of: B1; test: self-cleavage kobs at 2500 uM GlcN6P; higher = faster cleavage; RNA array
Outline: as §1

[3] = variants of: B1; test: self-cleavage kobs at 10000 uM GlcN6P; higher = faster cleavage; RNA array
Outline: as §1

[4] = variants of: B1; test: self-cleavage kobs at 40 uM GlcN6P; higher = faster cleavage; RNA array
Outline: as §1

[5] = variants of: B1; test: KM; higher = weaker cofactor use; RNA array
Outline: as §1

[6] = variants of: B1; test: self-cleavage kobs at 640 uM GlcN6P; higher = faster cleavage; RNA array
Outline: as §1

[7] = variants of: B1; test: self-cleavage kobs at 160 uM GlcN6P; higher = faster cleavage; RNA array
Outline: as §1

## AUAAAAGCGCCAGAACUACAGAAAUGUAGUUGACGAGGAGGAGGUUUGUCGAUUUUUCGGCGGAUGCCUCCAAA [A48G A53U]
[1]
  kcat: 6.17e-05 ± 9.3e-06 s⁻¹
[2]
  self-cleavage kobs at 2500 uM GlcN6P: 4.65e-05 ± 1.4e-05 s⁻¹
[3]
  self-cleavage kobs at 10000 uM GlcN6P: 5.16e-05 ± 7.9e-06 s⁻¹

## AUAAAAGCGCCAGAACUACAGAAAUGUAGUUGACGAGGAGGAGGUUUAACGAAUUUUCGGCGGAUGCCUCCAAA [U49A]
[1]
  kcat: 2.06e-05 ± 1.8e-06 s⁻¹
[4]
  self-cleavage kobs at 40 uM GlcN6P: < 1e-05 s⁻¹
[2]
  self-cleavage kobs at 2500 uM GlcN6P: 2.11e-05 ± 3e-06 s⁻¹
[3]
  self-cleavage kobs at 10000 uM GlcN6P: 1.9e-05 ± 1.6e-06 s⁻¹

## AUAAAAGCGCCAGAACUACAGAAAUGUAGUUGACGAGGAGGAGGUUUGUCGAAUUAUCGGCGGAUGCCUCCAAA [A48G U56A]
[1]
  kcat: 6.12e-05 ± 9.5e-06 s⁻¹
[2]
  self-cleavage kobs at 2500 uM GlcN6P: 4.68e-05 ± 7.6e-06 s⁻¹
[3]
  self-cleavage kobs at 10000 uM GlcN6P: 5.17e-05 ± 8.2e-06 s⁻¹

## AUAAAAGCGCCAGAACUACAGAAAUGUAGUUGACGAGGAGGAGGUUUUUCAAAUUUUCGGCGGAUGCCUCCAAA [A48U G51A]
[1]
  kcat: 1.23e-05 ± 5.9e-06 s⁻¹
[4]
  self-cleavage kobs at 40 uM GlcN6P: < 1e-05 s⁻¹
[3]
  self-cleavage kobs at 10000 uM GlcN6P: < 1e-05 s⁻¹

## AUAAAAGCGCCAGAACUACAGAAAUGUAGUUGACGAGGAGGAGGUUUUUCGAAUUUUCGGCGGACGCCUCCAAA [A48U U65C]
[1]
  kcat: 4.55e-05 ± 6.5e-06 s⁻¹
[4]
  self-cleavage kobs at 40 uM GlcN6P: < 1e-05 s⁻¹
[2]
  self-cleavage kobs at 2500 uM GlcN6P: 4.16e-05 ± 1.4e-05 s⁻¹
[3]
  self-cleavage kobs at 10000 uM GlcN6P: 3.92e-05 ± 1.5e-05 s⁻¹

## AUAAAAGCGCCAGAACUACAGAAAUGUAGUUGACGAGGAGGAGGUUUUUCGAAUUUCCGGCGGAUGCCGUCAAA [A48U U57C U69G C70U]
[1]
  kcat: < 1e-05 s⁻¹

## AUAAAAGCGCCAGAACUACAGAAAUGUAGUUGACGAGGAGGAGGUUUGUCGAAUUUUCGGAGGAUGCCUCCAAA [A48G C61A]
[1]
  kcat: 1.07e-05 ± 3.1e-06 s⁻¹

## AUAAAAGCGCCAGAACUACAGAAAUGUAGUUGACGAGGAGGAGGUUUGUCGAAAUUUCGGCGGAUGCCUCCAAA [A48G U54A]
[1]
  kcat: 0.000153 ± 2.2e-05 s⁻¹
[5]
  KM: 1650 ± 590 µM
[6]
  self-cleavage kobs at 640 uM GlcN6P: 3.77e-05 ± 9.3e-06 s⁻¹
[2]
  self-cleavage kobs at 2500 uM GlcN6P: 0.000115 ± 1.8e-05 s⁻¹
[3]
  self-cleavage kobs at 10000 uM GlcN6P: 0.000123 ± 1.8e-05 s⁻¹

## AUAAAAGCGCCAGAACUACAGAAAUGUAGUUGACGAGGAGGAGGUUUUUCGAAUUUUCGGCGGAUGCCUUCAAA [A48U C70U]
[1]
  kcat: 0.000821 ± 0.00021 s⁻¹
[5]
  KM: 2160 ± 900 µM
[7]
  self-cleavage kobs at 160 uM GlcN6P: 5.07e-05 ± 8e-06 s⁻¹
[6]
  self-cleavage kobs at 640 uM GlcN6P: 0.000334 ± 5.5e-05 s⁻¹
[2]
  self-cleavage kobs at 2500 uM GlcN6P: 0.000416 ± 6.2e-05 s⁻¹
[3]
  self-cleavage kobs at 10000 uM GlcN6P: 0.000671 ± 9.3e-05 s⁻¹

## AUAAAAGCGCCAGAACUACAGAAAUGUAGUUGACGAGGAGGAGGUUUUUCGAAUUUUCGGCGGAUGACUCCAAA [A48U C67A]
[1]
  kcat: 0.000213 ± 8.2e-05 s⁻¹
[6]
  self-cleavage kobs at 640 uM GlcN6P: 0.00012 ± 1.5e-05 s⁻¹
[2]
  self-cleavage kobs at 2500 uM GlcN6P: 0.000105 ± 2.4e-05 s⁻¹
[3]
  self-cleavage kobs at 10000 uM GlcN6P: 0.000298 ± 4.3e-05 s⁻¹

## AUAAAAGCGCCAGAACUACAGAAAUGUAGUUGACGAGGAGGAGGUUUGUCGAAUUUUCGGCGGAUGCCUCGAAA [A48G C71G]
[1]
  kcat: 1.72e-05 ± 7.5e-06 s⁻¹

## AUAAAAGCGCCAGAACUACAGAAAUGUAGUUGACGAGGAGGAGGUUUAACGAAUUUUCGGCGGAUGCCUCGAAA [U49A C71G]
[1]
  kcat: 2.68e-05 ± 1e-05 s⁻¹
[6]
  self-cleavage kobs at 640 uM GlcN6P: 3.32e-05 ± 1.2e-05 s⁻¹

## AUAAAAGCGCCAGAACUACAGAAAUGUAGUUGACGAGGAGGAGGUUUAACGAAUUUUCGGCGGAUGCCUCAAAA [U49A C71A]
[1]
  kcat: < 1e-05 s⁻¹

## AUAAAAGCGCCAGAACUACAGAAAUGUAGUUGACGAGGAGGAGGUUUGUCGAAUCUUCGGCGGAUGCCUCCAAA [A48G U55C]
[1]
  kcat: 0.000123 ± 9.6e-06 s⁻¹
[5]
  KM: 458 ± 210 µM
[6]
  self-cleavage kobs at 640 uM GlcN6P: 7.4e-05 ± 2.3e-05 s⁻¹
[2]
  self-cleavage kobs at 2500 uM GlcN6P: 0.000125 ± 2.5e-05 s⁻¹
[3]
  self-cleavage kobs at 10000 uM GlcN6P: 0.000113 ± 1.3e-05 s⁻¹

## AUAAAAGCGCCAGAACUACAGAAAUGUAGUUGACGAGGAGGAGGUUUCUCGAAUUGUCGGCGGAUGCCUCCAAA [A48C U56G]
[1]
  kcat: 0.000214 ± 2.7e-05 s⁻¹
[5]
  KM: 5570 ± 1300 µM
[2]
  self-cleavage kobs at 2500 uM GlcN6P: 6.9e-05 ± 1.3e-05 s⁻¹
[3]
  self-cleavage kobs at 10000 uM GlcN6P: 0.000135 ± 2.8e-05 s⁻¹

## AUAAAAGCGCCAGAACUACAGAAAUGUAGUUGACGAGGAGGAGGUUUCUCGAAUUAUCGGCGGAUGCCUCCAAA [A48C U56A]
[1]
  kcat: 0.000146 ± 3.6e-05 s⁻¹
[2]
  self-cleavage kobs at 2500 uM GlcN6P: 7.8e-05 ± 1.6e-05 s⁻¹
[3]
  self-cleavage kobs at 10000 uM GlcN6P: 0.000107 ± 1.7e-05 s⁻¹

## AUAAAAGCGCCAGAACUACAGAAAUGUAGUUGACGAGGAGGAGGUUUAACGAAUUUUCGGCGGGUGCCUCCAAA [U49A A64G]
[1]
  kcat: 2.04e-05 ± 1.6e-06 s⁻¹
[5]
  KM: 2090 ± 850 µM

## AUAAAAGCGCCAGAACUACAGAAAUGUAGUUGACGAGGAGGAGGUUUUUCGAAUUUUGGGCGGAUGCCUCCAAA [A48U C58G]
[1]
  kcat: 1.01e-05 ± 4e-06 s⁻¹

## AUAAAAGCGCCAGAACUACAGAAAUGUAGUUGACGAGGAGGAGGUUUCUCGAAUUUUCGGCGGAUUCCUCCAAA [A48C G66U]
[1]
  kcat: 2.77e-05 ± 2.1e-07 s⁻¹
[5]
  KM: 2750 ± 61 µM

## AUAAAAGCGCCAGAACUACAGAAAUGUAGUUGACGAGGAGGAGGUUUGUCGAAUUUUCGGCGGAUGCCUCCAAA [A48G]
[1]
  kcat: 0.000117 ± 1.3e-05 s⁻¹
[5]
  KM: 845 ± 350 µM
[7]
  self-cleavage kobs at 160 uM GlcN6P: 1.61e-05 ± 3.1e-06 s⁻¹
[6]
  self-cleavage kobs at 640 uM GlcN6P: 4.49e-05 ± 1.5e-06 s⁻¹
[2]
  self-cleavage kobs at 2500 uM GlcN6P: 0.00011 ± 2.2e-06 s⁻¹
[3]
  self-cleavage kobs at 10000 uM GlcN6P: 0.000103 ± 1.5e-06 s⁻¹

## AUAAAAGCGCCAGAACUACAGAAAUGUAGUUGACGAGGAGGAGGUUUUUCGAAUUUUCGGCGGAUGCCUCCAAA [A48U]
[1]
  kcat: 0.000759 ± 5.7e-05 s⁻¹
[5]
  KM: 2420 ± 350 µM
[4]
  self-cleavage kobs at 40 uM GlcN6P: < 1e-05 s⁻¹
[6]
  self-cleavage kobs at 640 uM GlcN6P: 0.000153 ± 3.5e-06 s⁻¹
[2]
  self-cleavage kobs at 2500 uM GlcN6P: 0.000432 ± 1e-05 s⁻¹
[3]
  self-cleavage kobs at 10000 uM GlcN6P: 0.000593 ± 1.1e-05 s⁻¹

## AUAAAAGCGCCAGAACUACAGAAAUGUAGUUGACGAGGAGGAGGUUUUUGGAAUUUUCGGCGGAUGAUUCCAAA [A48U C50G C67A C68U]
[1]
  kcat: 1.99e-05 ± 2.7e-06 s⁻¹

## AUAAAAGCGCCAGAACUACAGAAAUGUAGUUGACGAGGAGGAGGUUUGUCGGAUUUUCGGCGGAUGCCUCCAAA [A48G A52G]
[1]
  kcat: 1.36e-05 ± 9.9e-07 s⁻¹
[6]
  self-cleavage kobs at 640 uM GlcN6P: < 1e-05 s⁻¹

## AUAAAAGCGCCAGAACUACAGAAAUGUAGUUGACGAGGAGGAGGUUUUUCGAAUUUUCGGCGGAUGCUUCCAAA [A48U C68U]
[1]
  kcat: 7.9e-05 ± 4.9e-06 s⁻¹
[5]
  KM: 435 ± 140 µM
[6]
  self-cleavage kobs at 640 uM GlcN6P: 4.57e-05 ± 6.9e-06 s⁻¹
[2]
  self-cleavage kobs at 2500 uM GlcN6P: 7.48e-05 ± 7.7e-06 s⁻¹
[3]
  self-cleavage kobs at 10000 uM GlcN6P: 7.25e-05 ± 6.1e-06 s⁻¹
